The values below come from US20180155402A1 (Molecular Partners, published 2018).

The target in assay [1] is T1, human serum albumin (human, UniProt P02768 25-609).
T1 construct: also called HSA
Kind of assay: ProteOn SPR, PBS pH 7.4.

Assay [2] has as its target cynomolgus monkey serum albumin (cynomolgus monkey, UniProt A2V9Z4 25-608). Kind of assay: ProteOn SPR, PBS pH 7.4.
Another assay deals with mouse serum albumin (mouse, UniProt P07724 25-608). Description: ProteOn SPR, PBS pH 7.4.
Assay [3] has as its target T2, human HER2 (human, UniProt P04626 23-652, limits assumed).
T2 construct: This is HER2 as used in the surface plasmon resonance experiments; also called ErbB2; Human Epidermal Growth Factor Receptor 2
Kind of assay: SPR.

Assay [4] addresses T3, HER2 on BT474 cells (human, UniProt P04626 23-1255). Description: cell-based or functional assay.
Assay [5] concerns the target T4, extracellular domain of EGFR (UniProt P00533 25-645).
T4 construct: extracellular domain; also called ErbB1; HER1
Kind of assay: surface plasmon resonance.

Assay [6] addresses T5, extracellular domain of HER3 (UniProt P21860 20-643).
T5 construct: extracellular domain; also called ErbB3
Description: surface plasmon resonance.

Assay [7] has as its target T1, human serum albumin. Kind of assay: SPR; Protein #21 at 100 nM.
Assay [8] concerns the target T3, HER2 on BT474 cells. Kind of assay: cell-based or functional assay. This is another data set of the same source.
Assay [9] addresses T2, human HER2. Kind of assay: SPR, global fit over several concentrations; Protein #23-His. How it is done: (§1) Its affinity to HER2 was assessed by surface plasmon resonance as described in WO2014/083208.
In assay [10] the target is T2, human HER2. Kind of assay: SPR, global fit over several concentrations; Protein #21-His. The procedure:
as §1

Residue numbers refer to the chain shown, from its start.

mouse serum albumin, sequence (P07724 25-608 limits assumed): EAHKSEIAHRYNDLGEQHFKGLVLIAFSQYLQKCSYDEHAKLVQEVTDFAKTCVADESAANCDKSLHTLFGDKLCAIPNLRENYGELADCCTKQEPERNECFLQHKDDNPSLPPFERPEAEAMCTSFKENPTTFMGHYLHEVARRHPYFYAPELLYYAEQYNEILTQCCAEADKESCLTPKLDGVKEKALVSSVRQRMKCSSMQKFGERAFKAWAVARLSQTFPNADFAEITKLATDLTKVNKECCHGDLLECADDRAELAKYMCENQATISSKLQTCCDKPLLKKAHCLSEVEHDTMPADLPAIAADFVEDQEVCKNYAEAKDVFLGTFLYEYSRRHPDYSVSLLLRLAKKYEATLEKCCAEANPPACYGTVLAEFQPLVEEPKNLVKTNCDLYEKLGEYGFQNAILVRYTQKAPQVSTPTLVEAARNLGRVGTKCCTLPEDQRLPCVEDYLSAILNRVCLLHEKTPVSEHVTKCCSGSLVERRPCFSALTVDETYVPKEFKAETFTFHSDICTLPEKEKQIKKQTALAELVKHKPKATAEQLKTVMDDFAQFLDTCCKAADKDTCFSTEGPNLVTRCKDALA
cynomolgus monkey serum albumin, sequence (A2V9Z4 25-608 limits assumed): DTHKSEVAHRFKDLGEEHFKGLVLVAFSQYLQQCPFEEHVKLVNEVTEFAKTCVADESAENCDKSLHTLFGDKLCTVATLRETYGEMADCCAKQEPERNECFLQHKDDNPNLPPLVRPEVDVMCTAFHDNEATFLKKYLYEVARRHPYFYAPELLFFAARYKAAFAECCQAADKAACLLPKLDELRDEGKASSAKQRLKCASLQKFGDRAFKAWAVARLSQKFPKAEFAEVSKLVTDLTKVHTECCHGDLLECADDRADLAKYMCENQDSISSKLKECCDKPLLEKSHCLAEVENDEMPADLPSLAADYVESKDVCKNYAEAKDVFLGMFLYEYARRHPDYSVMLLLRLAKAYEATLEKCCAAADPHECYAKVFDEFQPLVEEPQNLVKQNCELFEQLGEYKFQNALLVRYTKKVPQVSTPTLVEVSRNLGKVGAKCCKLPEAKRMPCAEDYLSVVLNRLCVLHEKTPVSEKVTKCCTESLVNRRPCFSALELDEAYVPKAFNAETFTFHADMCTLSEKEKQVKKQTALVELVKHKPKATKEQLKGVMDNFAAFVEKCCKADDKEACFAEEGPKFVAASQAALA

B1: Protein #14-His (designed binder)
chain: MRGSHHHHHHGSDLGKKLLEAARAGQDDEVRELLKAGADVNAKDYFSHTPLHLAARNGHLKIVEVLLKAGADVNAKDFAGKTPLHLAANEGHLEIVEVLLKAGADVNAQDIFGKTPADIAADAGHEDIAEVLQKAA
As for B1, the dissociation constant (Kd) (in the assay with human serum albumin [1]; in assay [2]; in the assay with mouse serum albumin) was less than 100 nM in each case.

B2: Protein #13-His (designed binder)
chain: B1 chain with E90D
Turning to B2, the Kd (in the assay with human serum albumin [1]; in assay [2]; with mouse serum albumin) was less than 100 nM throughout.

B3: Protein #17-His (designed binder)
chain: MRGSHHHHHHGSDLGKKLLEAARAGQDDEVRELLKAGADVNAKDEYGLTPLYLATAHGHLEIVEVLLKAGADVNAVDAIGFTPLHLAAFIGHLEIAEVLLKAGADVNAQDKFGKTPADIAAGAGNEDIAEVLQKAA
Consider B3, for which the Kd with human HER2 [3] stood at 0.152 nM.

B4: Protein #21 (designed binder)
chain: GSDLGKKLLEAARAGQDDEVRELLKAGADVNAKDYFSHTPLHLAARNGHLKIVEVLLKAGADVNAKDFAGKTPLHLAANEGHLEIVEVLLKAGADVNAQDIFGKTPADIAADAGHEDIAEVLQKAAGSPTPTPTTPTPTPTTPTPTPTGSDLGIKLLFAAAKGQDDEVRELLKAGADVNAKDFQGVTPLHIAAQSGHLEIVEVLLKAGADVNAKDVTGDTPLHLAAQHGHLEIVEVLLKAGADVNAQDERGWTPADLAADWGHEDIAEVLQKAAGSPTPTPTTPTPTPTTPTPTPTGSDLGKKLLEAARAGQDDEVRELLKAGADVNAKDEYGLTPLYLATAHGHLEIVEVLLKAGADVNAVDAIGFTPLHLAAFIGHLEIAEVLLKAGADVNAQDKFGKTPADIAAGAGNEDIAEVLQKAAGSPTPTPTTPTPTPTTPTPTPTGSDLGKKLLEAARAGQDDEVRELLKAGADVNAKDYFSHTPLHLAARNGHLKIVEVLLKAGADVNAKDFAGKTPLHLAANEGHLEIVEVLLKAGADVNAQDIFGKTPADIAADAGHEDIAEVLQKAA
notes: Untagged
Take B4: in the assay with HER2 on BT474 cells [4], the “phosphorylation AKT S124, fold change to PBS (mass spectrometry)” value was 0.99 fold change to PBS; the “phosphorylation AKT S129, fold change to PBS (mass spectrometry)” value is 0.93 fold change to PBS; the “phosphorylation RAF S642, fold change to PBS (mass spectrometry)” value is 0.81 fold change to PBS; the “phosphorylation RAF T631/T638/T640/T641/S642, fold change to PBS (mass spectrometry)” value was 0.48 fold change to PBS. Moreover, in the assay with HER2 on BT474 cells [4], the “phosphorylation RPS6KB1/S6Kinase S441/T444/S447, fold change to PBS (mass spectrometry)” value is 0.63 fold change to PBS; the “phosphorylation RPS6KB1/S6Kinase T444/S447, fold change to PBS (mass spectrometry)” value is 0.92 fold change to PBS; the “phosphorylation mTOR S2448/S2454, fold change to PBS (mass spectrometry)” value is 0.79 fold change to PBS. In addition, the binding result in assay [5] is “no binding”. The binding result in [6] is on record as “no binding”. This molecule also came in with a Kd with human serum albumin [7] of 21 nM. In the assay with HER2 on BT474 cells [8], the “EC50, induction of apoptosis in BT474 cells (Caspase 3/7 activation)” value amounted to 2.4 nM.

B5: Protein #23-His (designed binder)
chain: MRGSHHHHHHGSDLGKKLLEAARAGQDDEVRELLKAGADVNAKDYFSHTPLHLAARNGHLKIVEVLLKAGADVNAKDFAGKTPLHLAANEGHLEIVEVLLKAGADVNAQDIFGKTPADIAADAGHEDIAEVLQKAAGSPTPTPTTPTPTPTTPTPTPTGSDLGVKLLWAAARGQDDEVRELLKAGADVNAKDFQGITPLHIAATNGHLEIVEVLLKAGADVNAKDITGETPLHHAADSGHLEIVEVLLKAGADVNAQDKAGVTPADLAAAWGHEDIAEVLQKAAGSPTPTPTTPTPTPTTPTPTPTGSDLGKKLLEAARAGQDDEVRELLKAGADVNAKDEYGLTPLYLATAHGHLEIVEVLLKAGADVNAVDAIGFTPLHLAAFIGHLEIAEVLLKAGADVNAQDKFGKTPADIAAGAGNEDIAEVLQKAAGSPTPTPTTPTPTPTTPTPTPTGSDLGKKLLEAARAGQDDEVRELLKAGADVNAKDYFSHTPLHLAARNGHLKIVEVLLKAGADVNAKDFAGKTPLHLAANEGHLEIVEVLLKAGADVNAQDIFGKTPADIAADAGHEDIAEVLQKAA
B5 showed a Kd with human HER2 [9] of 0.064 nM. Further, in the assay with HER2 on BT474 cells [8], the “IC50, inhibition of BT474 cell proliferation (BrdU)” value came to 2.4 nM.

B6: Protein #21-His (designed binder)
chain: MRGSHHHHHHGSDLGKKLLEAARAGQDDEVRELLKAGADVNAKDYFSHTPLHLAARNGHLKIVEVLLKAGADVNAKDFAGKTPLHLAANEGHLEIVEVLLKAGADVNAQDIFGKTPADIAADAGHEDIAEVLQKAAGSPTPTPTTPTPTPTTPTPTPTGSDLGIKLLFAAAKGQDDEVRELLKAGADVNAKDFQGVTPLHIAAQSGHLEIVEVLLKAGADVNAKDVTGDTPLHLAAQHGHLEIVEVLLKAGADVNAQDERGWTPADLAADWGHEDIAEVLQKAAGSPTPTPTTPTPTPTTPTPTPTGSDLGKKLLEAARAGQDDEVRELLKAGADVNAKDEYGLTPLYLATAHGHLEIVEVLLKAGADVNAVDAIGFTPLHLAAFIGHLEIAEVLLKAGADVNAQDKFGKTPADIAAGAGNEDIAEVLQKAAGSPTPTPTTPTPTPTTPTPTPTGSDLGKKLLEAARAGQDDEVRELLKAGADVNAKDYFSHTPLHLAARNGHLKIVEVLLKAGADVNAKDFAGKTPLHLAANEGHLEIVEVLLKAGADVNAQDIFGKTPADIAADAGHEDIAEVLQKAA
notes: also called Protein #31-His
Consider B6, for which the Kd with human HER2 [10] is 0.027 nM. For the same molecule, the “IC50, inhibition of BT474 cell proliferation (BrdU)” value with HER2 on BT474 cells [8] came to 1.5 nM.

B7: Protein #16-His (designed binder)
chain: MRGSHHHHHHGSDLGIKLLFAAAKGQDDEVRELLKAGADVNAKDFQGVTPLHIAAQSGHLEIVEVLLKAGADVNAKDVTGDTPLHLAAQHGHLEIVEVLLKAGADVNAQDERGWTPADLAADWGHEDIAEVLQKAA
With B7, in the assay with human HER2 [3], the equilibrium dissociation constant (Kd) is 0.009 nM.
